Reference: US20240392008A1

Molecular target: CD25 (IL-2Rα) (UniProt P01589)
Experiment: cell-based or functional assay

UniProt P01589, sequence (P01589 22-272 limits assumed): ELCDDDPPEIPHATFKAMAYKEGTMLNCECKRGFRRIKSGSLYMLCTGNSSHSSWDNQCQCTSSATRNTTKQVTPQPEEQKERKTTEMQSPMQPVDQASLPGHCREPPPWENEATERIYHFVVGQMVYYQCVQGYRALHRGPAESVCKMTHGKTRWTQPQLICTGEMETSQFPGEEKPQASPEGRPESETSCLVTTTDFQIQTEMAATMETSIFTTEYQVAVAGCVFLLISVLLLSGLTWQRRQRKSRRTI

B1: IC-T6-IC-IL2v (IL2v immunoconjugate) (protein, part only; not given: isotype control Fab and Fc chains, not shown: a dimerising Fc or GST)
chain, part: APASSSTKKTQLQLEHLLLDLQMILNGINNYKNPKLTRMLTAKFAMPKKATELKHLQCLEEELKPLEEVLNGAQSKNFHLRPRDLISNINVIVLELKGSETTFMCEYADETATIVEFLNRWITFAQSIISTLT
percent of pSTAT5+ cells among Treg (flow cytometry on PBMC, 20 min): 3 log
